Measured values published in patent US20080160006A1, “Nutrient Medium for Maintaining Neural Cells in Injured Nervous System” (priority 2001, published 2008).

Test system: human cortical brain cells (neurons vs glia)
Assay: Adult human cortical brain cells cultured in B27/Neurobasal A, immunostained for neurofilament and GFAP
Format: cell-based
Details: added in addition to FGF2, sample 4
Text: GENERAL METHODS. Brain tissue was ethically obtained by informed consent from patients before surgery under protocols approved by the Springfield Committee for Research on Human Subjects and the UC Irvine IRB. […] Rather than using aspiration to remove all tissue, slices of tissue 1-3 mm thick were obtained from cortical access ports or tissue that was marginal to the lesion. Use of electrocautery was kept to a minimum to reduce oxyradicals and other neuron damage. […] Hibernate A contains D-glucose, pyruvate, balanced salts, amino acids, and vitamins. B27 contains 5 antioxidants and 15 other components. […] After transport on ice to a laminar flow sterile hood in the culture laboratory, meninges and white matter were removed from the tissue with a scalpel and forceps in a 35 mm dish in 2 ml transport medium. […] The cell suspension was enriched for neurons by centrifugation on a density gradient of Optiprep (Invitrogen). […] The diluted Optiprep was further diluted with transport medium (v/v) to make a gradient containing 4 steps of 1 ml in a 15 ml centrifuge tube: bottom (0.35:0.65), 0.25:0.75, 0.2:0.8, top (0.15:0.85). Up to 6 ml of cell suspension was layered over the Optiprep step gradient. […] Cells were plated at a density of 320/mm^2 onto glass coverslips coated with polylysine as previously described. […]

B1: NT3: trophic factor NT3, recombinant, Regeneron (protein, UniProt P20783 139-257, looked up)
Neurotrophin-3: YAEHKSHRGEYSVCDSESLWVTDKSSAIDIRGHQVTVLGEIKTGNSPVKQYFYETRCKEARPVKNGCRGIDDKHWNSQCKTSQTYVRALTSENNKLVGWRWIRIDTSCVCALSRKIGRT
  survival of neurofilament positive cells versus FGF2 alone: no more efficacious
